Values belong to the binder of their own block, whether it stands above or below them.
Key:
Experiment in all cases: pull-down
[1] = biological target: T1, DHX29 (FL), His-tagged (UniProt Q7Z478 1-1369)
T1 sequence (looked up): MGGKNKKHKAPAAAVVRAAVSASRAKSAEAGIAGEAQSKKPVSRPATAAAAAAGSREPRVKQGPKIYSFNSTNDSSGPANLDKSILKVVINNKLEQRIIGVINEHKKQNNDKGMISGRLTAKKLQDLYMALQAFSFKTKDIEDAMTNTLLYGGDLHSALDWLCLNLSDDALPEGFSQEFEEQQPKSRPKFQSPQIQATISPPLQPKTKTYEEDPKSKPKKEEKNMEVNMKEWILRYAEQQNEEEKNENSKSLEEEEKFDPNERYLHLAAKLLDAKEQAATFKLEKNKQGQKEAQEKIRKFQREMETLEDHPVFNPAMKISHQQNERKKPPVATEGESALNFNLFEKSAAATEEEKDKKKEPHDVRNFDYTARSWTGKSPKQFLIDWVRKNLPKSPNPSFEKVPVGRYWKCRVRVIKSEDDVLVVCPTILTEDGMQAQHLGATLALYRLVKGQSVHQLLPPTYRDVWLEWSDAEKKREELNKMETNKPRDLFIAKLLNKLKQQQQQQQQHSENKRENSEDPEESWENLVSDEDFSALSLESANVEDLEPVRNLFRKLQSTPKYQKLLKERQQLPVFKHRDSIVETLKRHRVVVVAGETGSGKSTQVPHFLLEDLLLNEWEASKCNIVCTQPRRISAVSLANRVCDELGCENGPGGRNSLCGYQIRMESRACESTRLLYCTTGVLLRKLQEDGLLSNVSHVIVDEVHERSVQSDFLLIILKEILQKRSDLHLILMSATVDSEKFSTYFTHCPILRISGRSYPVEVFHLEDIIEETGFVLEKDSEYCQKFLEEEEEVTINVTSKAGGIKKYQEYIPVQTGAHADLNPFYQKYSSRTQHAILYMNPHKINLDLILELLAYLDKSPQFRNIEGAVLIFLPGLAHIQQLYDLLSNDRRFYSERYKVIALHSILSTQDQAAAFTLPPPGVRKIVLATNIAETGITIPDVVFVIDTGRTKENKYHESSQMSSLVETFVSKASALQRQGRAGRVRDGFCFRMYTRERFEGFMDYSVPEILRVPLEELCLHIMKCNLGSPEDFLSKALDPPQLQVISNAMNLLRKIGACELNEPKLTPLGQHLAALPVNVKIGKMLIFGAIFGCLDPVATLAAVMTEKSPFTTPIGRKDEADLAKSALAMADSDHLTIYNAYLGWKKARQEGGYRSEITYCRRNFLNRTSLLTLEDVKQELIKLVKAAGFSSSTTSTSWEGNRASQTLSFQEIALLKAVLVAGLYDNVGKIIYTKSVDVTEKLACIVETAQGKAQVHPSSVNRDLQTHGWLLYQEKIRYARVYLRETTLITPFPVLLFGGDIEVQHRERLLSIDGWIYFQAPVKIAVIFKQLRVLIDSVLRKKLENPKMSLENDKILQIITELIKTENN

[2] = biological target: T2, GST-DHX29 (248–594) (UniProt Q7Z478 248-594)
T2 sequence (looked up): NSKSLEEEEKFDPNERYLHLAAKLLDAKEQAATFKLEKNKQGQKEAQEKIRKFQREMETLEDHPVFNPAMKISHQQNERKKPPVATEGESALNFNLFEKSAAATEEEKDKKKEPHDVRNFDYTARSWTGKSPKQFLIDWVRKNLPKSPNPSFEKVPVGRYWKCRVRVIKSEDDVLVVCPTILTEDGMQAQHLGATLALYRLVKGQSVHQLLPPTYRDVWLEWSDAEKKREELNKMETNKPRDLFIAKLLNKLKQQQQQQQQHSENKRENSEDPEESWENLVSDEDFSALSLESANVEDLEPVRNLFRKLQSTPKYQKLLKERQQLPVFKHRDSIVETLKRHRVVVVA

[3] = biological target: GST-eIF3a (783–1382) (human, UniProt Q14152 783-1382)
Sequence of GST-eIF3a (783–1382) (Q14152 783-1382): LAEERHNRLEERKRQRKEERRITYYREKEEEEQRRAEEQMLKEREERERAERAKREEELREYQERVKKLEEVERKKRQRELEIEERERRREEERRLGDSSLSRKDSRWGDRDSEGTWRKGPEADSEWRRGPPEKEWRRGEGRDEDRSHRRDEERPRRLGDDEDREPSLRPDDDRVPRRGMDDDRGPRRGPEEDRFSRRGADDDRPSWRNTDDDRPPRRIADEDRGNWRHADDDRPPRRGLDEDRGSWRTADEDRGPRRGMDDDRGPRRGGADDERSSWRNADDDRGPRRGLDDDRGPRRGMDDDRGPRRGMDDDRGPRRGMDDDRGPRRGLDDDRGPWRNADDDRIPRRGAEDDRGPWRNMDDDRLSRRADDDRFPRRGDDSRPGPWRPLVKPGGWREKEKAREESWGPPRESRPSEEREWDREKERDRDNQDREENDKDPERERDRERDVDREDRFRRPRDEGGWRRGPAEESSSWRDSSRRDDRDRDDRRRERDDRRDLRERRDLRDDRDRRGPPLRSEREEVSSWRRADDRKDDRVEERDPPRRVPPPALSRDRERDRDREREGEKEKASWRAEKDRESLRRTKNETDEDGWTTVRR

binding result [1]: binds
B1: GST-eIF3b (161–264) (domain or fragment, murine, UniProt Q8JZQ9 161-264, looked up)
chain: VLKDRPQEADGIDSVIVVDNVPQVGPDRLEKLKNVIHKIFSKFGKIINDYYPEEDGKTKGYIFLEYASPAHAVDAVKNADGYKLDKQHTFRVNLFTDFDKYMTI

binding result [2]: binds
B2: eIF3b (1–300), His-tagged (domain or fragment, murine, UniProt Q8JZQ9 1-300, looked up)
chain: MQDAENVAVPEAAEERAEPARQQPASESPPTDEAAGSGGSEVGQTEDAEEDAEAGPEPEVRAKPAAQSEEETATSPAASPTPQSAERSPSQEPSAPGKAEAVGEQARGHPSAGAEEEGGSDGSAAEAEPRALENGEADEPSFSDPEDFVDDVSEEELLGDVLKDRPQEADGIDSVIVVDNVPQVGPDRLEKLKNVIHKIFSKFGKIINDYYPEEDGKTKGYIFLEYASPAHAVDAVKNADGYKLDKQHTFRVNLFTDFDKYMTISDEWDIPEKQPFKDLGNLRYWLEEAECRDQYSVIFE

binding result [3]: binds
B3: DHX29 (1–247), His-tagged (domain or fragment, UniProt Q7Z478 1-247, looked up)
chain: MGGKNKKHKAPAAAVVRAAVSASRAKSAEAGIAGEAQSKKPVSRPATAAAAAAGSREPRVKQGPKIYSFNSTNDSSGPANLDKSILKVVINNKLEQRIIGVINEHKKQNNDKGMISGRLTAKKLQDLYMALQAFSFKTKDIEDAMTNTLLYGGDLHSALDWLCLNLSDDALPEGFSQEFEEQQPKSRPKFQSPQIQATISPPLQPKTKTYEEDPKSKPKKEEKNMEVNMKEWILRYAEQQNEEEKNE

— PMC5113206 (RNA, 2016)
